In article PMC10123104:

Substrate: Nc1nc2c(ncn2[C@@H]2O[C@H](COP(=O)(O)OP(=O)(O)OP(=O)(O)O)[C@@H](O)[C@H]2O)c(=O)[nH]1
Assay: purified protein, by the assay type
Assay type: biochemical
Protocol: Nucleotides were detected at 254 nm. […] All measurements were performed in triplicate.

B1: ObgE (Escherichia coli K-12) (protein)
chain: MKFVDEASILVVAGDGGNGCVSFRREKYIPKGGPDGGDGGDGGDVWMEADENLNTLIDYRFEKSFRAERGQNGASRDCTGKRGKDVTIKVPVGTRVIDQGTGETMGDMTKHGQRLLVAKGGWHGLGNTRFKSSVNRTPRQKTNGTPGDKRELLLELMLLADVGMLGMPNAGKSTFIRAVSAAKPKVADYPFTTLVPSLGVVRMDNEKSFVVADIPGLIEGAAEGAGLGIRFLKHLERCRVLLHLIDIDPIDGTDPVENARIIISELEKYSQDLATKPRWLVFNKIDLLDKVEAEEKAKAIAEALGWEDKYYLISAASGLGVKDLCWDVMTFIIENPVVQAEEAKQPEKVEFMWDDYHRQQLEEIAEEDDEDWDDDWDEDDEEGVEFIYKR
notes: full length, N-terminally His6-tagged (pET28a), nucleotide-free after alkaline phosphatase treatment
B1 showed a Km of 4 µM.
